Here are results for 7 molecules from patent US20210206841A1 (RESEARCH INSTITUTE AT NATIONWIDE CHILDREN S HOSPITAL, published 2021).

Test [1] has as its target T1, native IHFNTHI (integration host factor of nontypeable Haemophilus influenzae) (nontypeable Haemophilus influenzae …, UniProt P43723 1-96; P43724 1-94).
T1 construct: also called NTHI IHF
T1 sequence 1: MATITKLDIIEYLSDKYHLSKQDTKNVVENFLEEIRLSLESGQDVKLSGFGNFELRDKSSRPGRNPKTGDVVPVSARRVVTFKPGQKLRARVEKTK
T1 sequence 2: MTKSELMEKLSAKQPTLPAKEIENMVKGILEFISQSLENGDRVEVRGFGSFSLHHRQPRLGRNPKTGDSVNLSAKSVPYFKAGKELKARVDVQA
Briefly: SPR Biacore 3000, IHFNTHI immobilized, HuMab as analyte. (SPR reads the build-up and loss of mass on a sensor chip optically.)

The target of test [2] is T2, tip-chimeric peptide IhfA5-mIhfB4NTHI (nontypeable Haemophilus influenzae …).
T2 construct: also called IHF(NTHI) tip chimeric peptide; IHFNTHI tip chimeric peptide
T2 peptide: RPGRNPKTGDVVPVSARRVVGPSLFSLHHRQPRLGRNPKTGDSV
The test is described as follows: SPR Biacore 3000, peptide immobilized, HuMab as analyte.

Test [3] has as its target T1, native IHFNTHI (integration host factor …). Briefly: SPR Biacore 3000, HuMab immobilized, IHFNTHI as analyte.
Test [4] has as its target T2, tip-chimeric peptide IhfA5-mIhfB4NTHI. The test is described as follows: SPR Biacore 3000, HuMab immobilized, peptide as analyte.
The target is the same in test [5]. The test is described as follows: direct ELISA #1, peptide coated (curves not reaching equilibrium). A general note: In an ELISA, binding on a coated surface is turned into a signal by an enzyme label.
The target is the same in test [6]. The test is described as follows: direct ELISA #2, peptide coated (curves reaching equilibrium).

What is called Kd is the free concentration of one partner at which half of the binding sites on the other are occupied at equilibrium, for simple one-to-one binding. The low end stands for tighter binding, the high end for weaker binding. As usually defined, the koff is a measure of how fast the partners let go of each other. Higher therefore signals a short-lived complex. Usually kon stands for the rate constant with which the complex forms. A low value points to slower complex formation. As usually defined, the EC50 is the concentration at which the effect is half-maximal. A lower EC50 goes with greater potency.

B1: humanized anti-tip monoclonal antibody, heavy chain SEQ ID NO: 3 and light chain SEQ ID NO: 7 (antibody, V domains shown)
VH: EVKLVQSGAEVKKPGASVKVSCKASGFTFRTYAMSWVRQAPGQRLEWVATIGSDRRHTYYPDKFQGRVTITRDNAKNTLYMELSSLRSEDTAVYYCVGPYDGYYGEFDYWGQGTLVTVSS
VL: DVVMTQSPLSLPVTLGQPASISCRSSQSLLDSDGKTFLNWLQQRPGQSPRRLIYLVSKLDSGVPDRFSGSGSGTDFTLKISRVEAEDVGVYYCWQGTHFPYTFGQGTKLEIKR
notes: also called H10212 (1F8.F1 Humanized HC3) + L10210 (1F8.F1 Humanized LC1)
B1: the equilibrium dissociation constant (Kd) in test [1] came to 825 nM; in test [2], 8 nM; in test [3] it was 6 nM; in test [4], 29 nM. The koff in test [1] stood at 0.00011 s⁻¹; in test [2], 0.0004 s⁻¹; in test [3] it was 0.0004 s⁻¹; in test [4], 0.0016 s⁻¹. For the same molecule, the association rate constant (kon) in test [1] amounted to 140 M⁻¹ s⁻¹; in test [2], 48000 M⁻¹ s⁻¹; in test [3] it was 66000 M⁻¹ s⁻¹; in test [4], 54000 M⁻¹ s⁻¹. Besides, the EC50 amounted to 0.075 µg/mL in test [5] and 0.0858 µg/mL in test [6].

B2: humanized anti-tip monoclonal antibody, heavy chain SEQ ID NO: 1 and light chain SEQ ID NO: 7 (antibody, V domains shown)
VH: EVKLVESGGGLVQPGGSLRLSCAASGFTFRTYAMSWVRQAPGKGLEWVATIGSDRRHTYYPDSVKGRFTISRDNAKNTLYLQMNSLRAEDTAVYYCVGPYDGYYGEFDYWGQGTLVTVSS
VL: DVVMTQSPLSLPVTLGQPASISCRSSQSLLDSDGKTFLNWLQQRPGQSPRRLIYLVSKLDSGVPDRFSGSGSGTDFTLKISRVEAEDVGVYYCWQGTHFPYTFGQGTKLEIKR
notes: also called HuTipMab; TP-21949
For B2, the Kd in test [1] is 17 nM; in test [2], 7 nM; in test [3], 10 nM; in test [4], 76 nM. The koff was determined as 9e-05 s⁻¹ in test [1], 0.00022 s⁻¹ in test [2], 1.4e-05 s⁻¹ in test [3] and 0.00034 s⁻¹ in test [4]. Also, the kon in test [1] was 5400 M⁻¹ s⁻¹; in test [2] it was 31000 M⁻¹ s⁻¹; in test [3], 1400 M⁻¹ s⁻¹; in test [4], 4500 M⁻¹ s⁻¹. Besides, the results for the EC50 in test [5] and in test [6] were 0.06 µg/mL and 0.0704 µg/mL, respectively.

B3: humanized anti-tip monoclonal antibody, heavy chain SEQ ID NO: 2 and light chain SEQ ID NO: 7 (antibody, V domains shown)
VH: EVQLVESGGGLVQPGGSLRLSCAASGFTFRTYAMSWVRQAPGKGLEWVATIGSDRRHTYYPDSVKGRFTISRDNSKNTLYLQMNSLRAEDTAVYYCVGPYDGYYGEFDYWGQGTLVTVSS
VL: DVVMTQSPLSLPVTLGQPASISCRSSQSLLDSDGKTFLNWLQQRPGQSPRRLIYLVSKLDSGVPDRFSGSGSGTDFTLKISRVEAEDVGVYYCWQGTHFPYTFGQGTKLEIKR
notes: also called H10211 (1F8.F1 Humanized HC2) + L10210 (1F8.F1 Humanized LC1)
Take B3: the Kd in test [1] was found to be 4400 nM; in test [2], 144 nM; in test [3] it was 0.6 nM; in test [4] it was 527 nM. Moreover, the dissociation rate constant (koff) in test [1] was 0.0014 s⁻¹; in test [2] it was 0.0026 s⁻¹; in test [3], 0.0004 s⁻¹; in test [4] it was 0.00015 s⁻¹. In addition, the results for the association rate constant (kon) in test [2], in test [3] and in test [4] were 18000 M⁻¹ s⁻¹, 640000 M⁻¹ s⁻¹ and 280 M⁻¹ s⁻¹, respectively. The EC50 in test [5] was 0.049 µg/mL; in test [6], 0.062 µg/mL.

B4: humanized anti-tip monoclonal antibody, heavy chain SEQ ID NO: 1 and light chain SEQ ID NO: 8 (antibody, V domains shown)
VH: EVKLVESGGGLVQPGGSLRLSCAASGFTFRTYAMSWVRQAPGKGLEWVATIGSDRRHTYYPDSVKGRFTISRDNAKNTLYLQMNSLRAEDTAVYYCVGPYDGYYGEFDYWGQGTLVTVSS
VL: DVVMTQSPLSLPVTLGQPASISCRSSQSLLDSDGKTFLNWLQQRPGQSPRRLIYLVSKRDSGVPDRFSGSGSGTDFTLKISRVEAEDVGVYYCWQGTHFPYTFGQGTKLEIKR
notes: also called H10210 (1F8.F1 Humanized HC1) + L10211 (1F8.F1 Humanized LC2)
As to B4, the Kd in test [1] was determined as 40 nM; in test [2] it was 0.3 nM; in test [3], 0.2 nM; in test [4], 21 nM. Besides, the koff was determined as 0.006 s⁻¹ in test [1], 1.1e-05 s⁻¹ in test [2], 0.00032 s⁻¹ in test [3] and 0.00037 s⁻¹ in test [4]. The kon stood at 150000 M⁻¹ s⁻¹ in test [1], 42000 M⁻¹ s⁻¹ in test [2], 1.4e+06 M⁻¹ s⁻¹ in test [3] and 17000 M⁻¹ s⁻¹ in test [4]. The half-maximal effective concentration (EC50) worked out at 0.066 µg/mL in test [5] and 0.0644 µg/mL in test [6].

B5: humanized anti-tip monoclonal antibody, heavy chain SEQ ID NO: 2 and light chain SEQ ID NO: 8 (antibody, V domains shown)
VH: EVQLVESGGGLVQPGGSLRLSCAASGFTFRTYAMSWVRQAPGKGLEWVATIGSDRRHTYYPDSVKGRFTISRDNSKNTLYLQMNSLRAEDTAVYYCVGPYDGYYGEFDYWGQGTLVTVSS
VL: DVVMTQSPLSLPVTLGQPASISCRSSQSLLDSDGKTFLNWLQQRPGQSPRRLIYLVSKRDSGVPDRFSGSGSGTDFTLKISRVEAEDVGVYYCWQGTHFPYTFGQGTKLEIKR
notes: also called H10211 (1F8.F1 Humanized HC2) + L10211 (1F8.F1 Humanized LC2)
In the case of B5, the Kd in test [1] was found to be 354 nM; in test [2] it was 13 nM; in test [3] it was 9 nM; in test [4], 257 nM. The koff worked out at 0.00015 s⁻¹ in test [1], 0.00028 s⁻¹ in test [2], 0.00059 s⁻¹ in test [3] and 7.7e-05 s⁻¹ in test [4]. Besides, the kon in test [1] stood at 420 M⁻¹ s⁻¹; in test [2], 22000 M⁻¹ s⁻¹; in test [3], 70000 M⁻¹ s⁻¹; in test [4] it was 300 M⁻¹ s⁻¹. Moreover, the half-maximal effective concentration (EC50) in test [5] is 0.055 µg/mL; in test [6], 0.0402 µg/mL.

B6: humanized anti-tip monoclonal antibody, heavy chain SEQ ID NO: 1 and light chain SEQ ID NO: 9 (antibody, V domains shown)
VH: EVKLVESGGGLVQPGGSLRLSCAASGFTFRTYAMSWVRQAPGKGLEWVATIGSDRRHTYYPDSVKGRFTISRDNAKNTLYLQMNSLRAEDTAVYYCVGPYDGYYGEFDYWGQGTLVTVSS
VL: DVVMTQSPDSLAVSLGERATINCKSSQSLLDSDGKTFLNWLQQKPGQPPKRLIYLVSKLDSGVPDRFSGSGSGTDFTLTISSLQAEDVAVYYCWQGTHFPYTFGQGTKLEIKR
notes: also called H10210 (1F8.F1 Humanized HC1) + L10212 (1F8.F1 Humanized LC3)
With B6, the Kd in test [1] was 24 nM; in test [2], 0.3 nM; in test [3] it was 0.6 nM; in test [4], 152 nM. Moreover, the koff in test [1] is 0.16 s⁻¹; in test [2] it was 1.3e-05 s⁻¹; in test [3], 0.00037 s⁻¹; in test [4], 0.00038 s⁻¹. Moreover, the on-rate (kon) in test [1] was determined as 6.5e+06 M⁻¹ s⁻¹; in test [2] it was 40000 M⁻¹ s⁻¹; in test [3] it was 630000 M⁻¹ s⁻¹; in test [4] it was 2500 M⁻¹ s⁻¹. Further, the EC50 was found to be 0.032 µg/mL in test [5] and 0.055 µg/mL in test [6].

B7: humanized anti-tip monoclonal antibody, heavy chain SEQ ID NO: 2 and light chain SEQ ID NO: 9 (antibody, V domains shown)
VH: EVQLVESGGGLVQPGGSLRLSCAASGFTFRTYAMSWVRQAPGKGLEWVATIGSDRRHTYYPDSVKGRFTISRDNSKNTLYLQMNSLRAEDTAVYYCVGPYDGYYGEFDYWGQGTLVTVSS
VL: DVVMTQSPDSLAVSLGERATINCKSSQSLLDSDGKTFLNWLQQKPGQPPKRLIYLVSKLDSGVPDRFSGSGSGTDFTLTISSLQAEDVAVYYCWQGTHFPYTFGQGTKLEIKR
notes: also called H10211 (1F8.F1 Humanized HC2) + L10212 (1F8.F1 Humanized LC3)
Consider B7, for which the dissociation constant Kd in test [1] worked out at 125 nM; in test [2], 4 nM; in test [3], 62 nM; in test [4] it was 23 nM. The koff stood at 0.0017 s⁻¹ in test [1], 1.2e-05 s⁻¹ in test [2], 0.00045 s⁻¹ in test [3] and 7.4e-05 s⁻¹ in test [4]. In addition, the kon in test [2] turned out to be 3700 M⁻¹ s⁻¹; in test [3], 7200 M⁻¹ s⁻¹; in test [4] it was 3500 M⁻¹ s⁻¹. The figures for the EC50 in test [5] and in test [6] were 0.027 µg/mL and 0.0453 µg/mL, respectively.
